In patent US9176064B2, “Bisubstrate fluorescent probes for protein kinase CK2” (University of Tartu, priority 2012, dated 2015):
Where a SMILES comes first, the peptide text is derived from it. [ ]: non-standard residue; d: D form. The star is where a group is joined. X1 = O=C(CCCCCCCn1cnc2c(Br)c(Br)c(Br)c(Br)c21)*

Columns and labels:
Assay in all cases: Kinase panel residual activity
Type in all cases: biochemical
Conditions in all cases: compound at 1 micromolar
[1] = target: T1, Aurora A (Homo sapiens, UniProt O14965)
T1 sequence (O14965 1-403): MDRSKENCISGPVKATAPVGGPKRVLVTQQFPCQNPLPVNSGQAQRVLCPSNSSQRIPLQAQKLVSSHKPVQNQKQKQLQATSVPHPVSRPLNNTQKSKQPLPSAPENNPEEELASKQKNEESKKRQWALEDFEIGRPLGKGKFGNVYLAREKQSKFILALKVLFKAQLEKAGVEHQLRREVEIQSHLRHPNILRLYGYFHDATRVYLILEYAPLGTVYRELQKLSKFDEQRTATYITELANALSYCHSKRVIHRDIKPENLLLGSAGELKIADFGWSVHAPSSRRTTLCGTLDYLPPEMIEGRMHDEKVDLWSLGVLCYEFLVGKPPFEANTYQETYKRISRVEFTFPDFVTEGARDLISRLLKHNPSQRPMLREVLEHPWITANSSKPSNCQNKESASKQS

[2] = target: JNK1 (Homo sapiens, UniProt P45983)
[3] = target: T2, DYRK2 (Homo sapiens, UniProt Q92630)
T2 sequence (Q92630 1-601): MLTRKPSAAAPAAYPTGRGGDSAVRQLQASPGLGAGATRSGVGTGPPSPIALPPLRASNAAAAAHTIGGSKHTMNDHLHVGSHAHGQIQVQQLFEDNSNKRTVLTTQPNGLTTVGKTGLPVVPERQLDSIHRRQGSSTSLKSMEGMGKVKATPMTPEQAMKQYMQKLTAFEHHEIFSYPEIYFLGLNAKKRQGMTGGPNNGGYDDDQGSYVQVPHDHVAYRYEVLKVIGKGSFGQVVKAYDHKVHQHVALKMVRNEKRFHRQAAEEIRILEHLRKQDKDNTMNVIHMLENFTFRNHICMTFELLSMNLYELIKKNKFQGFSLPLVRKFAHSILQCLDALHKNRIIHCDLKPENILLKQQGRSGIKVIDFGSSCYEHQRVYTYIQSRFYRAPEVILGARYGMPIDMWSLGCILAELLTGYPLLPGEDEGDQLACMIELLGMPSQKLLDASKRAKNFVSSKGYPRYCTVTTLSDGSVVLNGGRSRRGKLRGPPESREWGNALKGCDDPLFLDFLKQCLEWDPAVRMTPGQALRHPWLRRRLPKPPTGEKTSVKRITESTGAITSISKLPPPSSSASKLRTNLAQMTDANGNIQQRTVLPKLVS

[4] = target: T3, DDR2 (Homo sapiens, UniProt Q16832)
T3 sequence (Q16832 22-855): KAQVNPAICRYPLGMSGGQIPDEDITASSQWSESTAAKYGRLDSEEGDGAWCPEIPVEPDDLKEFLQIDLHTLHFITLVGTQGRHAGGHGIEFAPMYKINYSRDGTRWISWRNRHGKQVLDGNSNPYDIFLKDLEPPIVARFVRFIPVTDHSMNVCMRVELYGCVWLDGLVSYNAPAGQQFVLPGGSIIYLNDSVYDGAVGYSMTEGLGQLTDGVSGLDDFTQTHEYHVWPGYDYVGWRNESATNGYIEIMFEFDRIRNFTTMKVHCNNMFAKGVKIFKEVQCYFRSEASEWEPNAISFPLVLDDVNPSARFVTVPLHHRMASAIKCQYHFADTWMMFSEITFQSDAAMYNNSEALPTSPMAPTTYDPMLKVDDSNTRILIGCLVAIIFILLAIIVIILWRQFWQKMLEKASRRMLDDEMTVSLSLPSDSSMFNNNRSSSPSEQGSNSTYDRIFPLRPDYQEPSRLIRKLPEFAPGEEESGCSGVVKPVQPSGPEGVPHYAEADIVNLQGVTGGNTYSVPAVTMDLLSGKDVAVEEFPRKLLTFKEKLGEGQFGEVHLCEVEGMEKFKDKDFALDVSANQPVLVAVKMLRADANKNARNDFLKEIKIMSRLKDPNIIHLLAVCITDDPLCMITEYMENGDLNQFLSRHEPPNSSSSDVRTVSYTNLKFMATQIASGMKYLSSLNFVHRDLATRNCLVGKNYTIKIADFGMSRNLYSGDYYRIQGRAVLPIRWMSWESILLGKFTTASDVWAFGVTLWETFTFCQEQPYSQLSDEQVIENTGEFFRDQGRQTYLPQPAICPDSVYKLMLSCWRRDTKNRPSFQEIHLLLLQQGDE

[5] = target: T4, PRAK (Homo sapiens, UniProt Q8IW41)
T4 sequence (Q8IW41 1-473): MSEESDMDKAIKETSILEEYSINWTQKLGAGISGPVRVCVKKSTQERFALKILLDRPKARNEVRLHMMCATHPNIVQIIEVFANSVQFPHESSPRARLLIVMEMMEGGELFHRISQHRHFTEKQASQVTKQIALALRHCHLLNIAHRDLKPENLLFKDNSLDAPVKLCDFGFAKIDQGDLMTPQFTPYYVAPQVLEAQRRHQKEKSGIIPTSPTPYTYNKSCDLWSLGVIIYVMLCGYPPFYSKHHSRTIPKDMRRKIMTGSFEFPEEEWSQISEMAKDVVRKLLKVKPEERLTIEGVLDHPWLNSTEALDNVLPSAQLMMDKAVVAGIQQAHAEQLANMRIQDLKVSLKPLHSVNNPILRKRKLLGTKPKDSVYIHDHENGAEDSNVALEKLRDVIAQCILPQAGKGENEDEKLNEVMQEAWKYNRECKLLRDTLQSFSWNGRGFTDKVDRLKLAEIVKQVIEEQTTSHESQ

[6] = target: MAPKAP-K3 (Homo sapiens, UniProt Q16644)
[7] = target: DYRK1A (Homo sapiens, UniProt Q13627)
[8] = target: CDK9-Cyclin T1 (Homo sapiens, UniProt P50750)
[9] = target: MAPKAP-K2 (Homo sapiens, UniProt P49137)
Sequence of MAPKAP-K2 (P49137 whole entry, species assumed): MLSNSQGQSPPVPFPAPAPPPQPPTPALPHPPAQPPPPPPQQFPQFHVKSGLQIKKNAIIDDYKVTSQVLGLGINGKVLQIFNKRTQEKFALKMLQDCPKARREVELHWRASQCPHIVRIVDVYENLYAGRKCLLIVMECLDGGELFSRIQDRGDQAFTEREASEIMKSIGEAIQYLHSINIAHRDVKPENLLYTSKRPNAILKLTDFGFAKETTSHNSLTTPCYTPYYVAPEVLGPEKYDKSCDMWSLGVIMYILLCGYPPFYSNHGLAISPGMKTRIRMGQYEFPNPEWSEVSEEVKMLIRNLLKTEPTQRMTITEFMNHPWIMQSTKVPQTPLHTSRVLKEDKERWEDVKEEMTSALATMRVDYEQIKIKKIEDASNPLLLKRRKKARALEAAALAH

Sequence of MAPKAP-K3 (Q16644 whole entry, species assumed): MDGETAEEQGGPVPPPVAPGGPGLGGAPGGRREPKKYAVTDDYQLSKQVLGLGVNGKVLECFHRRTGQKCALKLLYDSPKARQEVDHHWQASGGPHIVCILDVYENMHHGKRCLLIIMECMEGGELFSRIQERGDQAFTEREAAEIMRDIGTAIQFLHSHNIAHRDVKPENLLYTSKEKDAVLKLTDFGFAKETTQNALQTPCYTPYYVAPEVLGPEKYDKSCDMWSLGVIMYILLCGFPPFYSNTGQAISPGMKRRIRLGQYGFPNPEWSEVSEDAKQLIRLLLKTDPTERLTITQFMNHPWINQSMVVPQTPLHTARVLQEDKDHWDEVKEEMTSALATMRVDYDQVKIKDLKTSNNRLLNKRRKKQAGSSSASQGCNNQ
Sequence of JNK1 (P45983 whole entry, species assumed): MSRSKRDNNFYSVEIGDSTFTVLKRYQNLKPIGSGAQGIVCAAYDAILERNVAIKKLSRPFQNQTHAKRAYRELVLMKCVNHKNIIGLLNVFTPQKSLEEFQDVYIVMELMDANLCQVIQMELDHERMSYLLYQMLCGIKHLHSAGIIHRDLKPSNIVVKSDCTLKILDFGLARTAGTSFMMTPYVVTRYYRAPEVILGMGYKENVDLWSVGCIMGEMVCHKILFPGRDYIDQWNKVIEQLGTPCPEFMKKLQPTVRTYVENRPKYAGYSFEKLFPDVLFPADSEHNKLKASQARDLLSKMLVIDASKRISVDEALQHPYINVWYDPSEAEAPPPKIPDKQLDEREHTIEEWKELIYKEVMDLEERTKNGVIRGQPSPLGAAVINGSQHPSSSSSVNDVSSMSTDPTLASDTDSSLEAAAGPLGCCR
Sequence of CDK9-Cyclin T1 (P50750 whole entry): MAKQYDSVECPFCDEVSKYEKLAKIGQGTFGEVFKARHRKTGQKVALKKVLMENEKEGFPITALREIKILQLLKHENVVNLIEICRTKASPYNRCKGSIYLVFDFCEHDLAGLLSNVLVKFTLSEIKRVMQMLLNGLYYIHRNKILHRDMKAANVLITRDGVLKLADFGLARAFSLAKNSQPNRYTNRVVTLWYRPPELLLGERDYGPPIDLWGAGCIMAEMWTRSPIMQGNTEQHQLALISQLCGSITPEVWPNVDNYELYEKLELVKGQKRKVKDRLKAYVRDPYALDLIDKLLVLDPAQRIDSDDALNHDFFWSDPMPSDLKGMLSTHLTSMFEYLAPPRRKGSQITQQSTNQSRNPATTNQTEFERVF
Sequence of CDK9-Cyclin T1 (O60563 whole entry partner): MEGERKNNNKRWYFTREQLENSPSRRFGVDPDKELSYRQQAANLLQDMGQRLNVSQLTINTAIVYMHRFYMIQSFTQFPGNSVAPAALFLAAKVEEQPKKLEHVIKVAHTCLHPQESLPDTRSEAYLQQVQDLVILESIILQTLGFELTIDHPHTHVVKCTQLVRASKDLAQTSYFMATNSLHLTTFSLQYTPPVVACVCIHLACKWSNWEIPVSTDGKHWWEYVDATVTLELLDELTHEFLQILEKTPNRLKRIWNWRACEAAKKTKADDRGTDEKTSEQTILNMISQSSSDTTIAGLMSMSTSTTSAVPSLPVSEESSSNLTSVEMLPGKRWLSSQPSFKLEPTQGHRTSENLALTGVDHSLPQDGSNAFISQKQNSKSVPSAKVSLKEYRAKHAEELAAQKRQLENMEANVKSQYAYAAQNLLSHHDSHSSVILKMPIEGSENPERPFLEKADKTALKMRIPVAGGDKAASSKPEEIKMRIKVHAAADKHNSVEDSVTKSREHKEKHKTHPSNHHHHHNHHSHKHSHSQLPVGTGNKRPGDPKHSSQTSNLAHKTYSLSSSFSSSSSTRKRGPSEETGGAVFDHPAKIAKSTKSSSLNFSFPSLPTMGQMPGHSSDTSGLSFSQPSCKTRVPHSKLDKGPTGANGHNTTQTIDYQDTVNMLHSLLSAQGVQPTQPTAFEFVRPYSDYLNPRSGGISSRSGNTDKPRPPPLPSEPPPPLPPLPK

NCCCC[C@H](NC(=O)[C@H](CC(=O)O)NC(=O)[C@H](CC(=O)O)NC(=O)[C@H](CC(=O)O)NC(=O)[C@H](CC(=O)O)NC(=O)[C@H](CC(=O)O)NC(=O)[C@@H](CC(=O)O)NC(=O)CCCCCCCn1cnc2c(Br)c(Br)c(Br)c(Br)c21)C(=O)O [TBBI-OcA-(D-Asp)-(L-Asp)5-(L-Lys)-OH] (X1-[dD]DDDDDK-OH)
remaining activity at 1 µM [1]: 118%
remaining activity at 1 µM [2]: 103%
remaining activity at 1 µM [3]: 17%
remaining activity at 1 µM [4]: 109%
remaining activity at 1 µM [5]: 74%
remaining activity at 1 µM [6]: 69%
remaining activity at 1 µM [7]: 36%
remaining activity at 1 µM [8]: 65%
remaining activity at 1 µM [9]: 89%
